Results: article PMC10532153 (2023)

T1: Sos-S1 peptide (Drosophila melanogaster, UniProt P26675)
T1 chain: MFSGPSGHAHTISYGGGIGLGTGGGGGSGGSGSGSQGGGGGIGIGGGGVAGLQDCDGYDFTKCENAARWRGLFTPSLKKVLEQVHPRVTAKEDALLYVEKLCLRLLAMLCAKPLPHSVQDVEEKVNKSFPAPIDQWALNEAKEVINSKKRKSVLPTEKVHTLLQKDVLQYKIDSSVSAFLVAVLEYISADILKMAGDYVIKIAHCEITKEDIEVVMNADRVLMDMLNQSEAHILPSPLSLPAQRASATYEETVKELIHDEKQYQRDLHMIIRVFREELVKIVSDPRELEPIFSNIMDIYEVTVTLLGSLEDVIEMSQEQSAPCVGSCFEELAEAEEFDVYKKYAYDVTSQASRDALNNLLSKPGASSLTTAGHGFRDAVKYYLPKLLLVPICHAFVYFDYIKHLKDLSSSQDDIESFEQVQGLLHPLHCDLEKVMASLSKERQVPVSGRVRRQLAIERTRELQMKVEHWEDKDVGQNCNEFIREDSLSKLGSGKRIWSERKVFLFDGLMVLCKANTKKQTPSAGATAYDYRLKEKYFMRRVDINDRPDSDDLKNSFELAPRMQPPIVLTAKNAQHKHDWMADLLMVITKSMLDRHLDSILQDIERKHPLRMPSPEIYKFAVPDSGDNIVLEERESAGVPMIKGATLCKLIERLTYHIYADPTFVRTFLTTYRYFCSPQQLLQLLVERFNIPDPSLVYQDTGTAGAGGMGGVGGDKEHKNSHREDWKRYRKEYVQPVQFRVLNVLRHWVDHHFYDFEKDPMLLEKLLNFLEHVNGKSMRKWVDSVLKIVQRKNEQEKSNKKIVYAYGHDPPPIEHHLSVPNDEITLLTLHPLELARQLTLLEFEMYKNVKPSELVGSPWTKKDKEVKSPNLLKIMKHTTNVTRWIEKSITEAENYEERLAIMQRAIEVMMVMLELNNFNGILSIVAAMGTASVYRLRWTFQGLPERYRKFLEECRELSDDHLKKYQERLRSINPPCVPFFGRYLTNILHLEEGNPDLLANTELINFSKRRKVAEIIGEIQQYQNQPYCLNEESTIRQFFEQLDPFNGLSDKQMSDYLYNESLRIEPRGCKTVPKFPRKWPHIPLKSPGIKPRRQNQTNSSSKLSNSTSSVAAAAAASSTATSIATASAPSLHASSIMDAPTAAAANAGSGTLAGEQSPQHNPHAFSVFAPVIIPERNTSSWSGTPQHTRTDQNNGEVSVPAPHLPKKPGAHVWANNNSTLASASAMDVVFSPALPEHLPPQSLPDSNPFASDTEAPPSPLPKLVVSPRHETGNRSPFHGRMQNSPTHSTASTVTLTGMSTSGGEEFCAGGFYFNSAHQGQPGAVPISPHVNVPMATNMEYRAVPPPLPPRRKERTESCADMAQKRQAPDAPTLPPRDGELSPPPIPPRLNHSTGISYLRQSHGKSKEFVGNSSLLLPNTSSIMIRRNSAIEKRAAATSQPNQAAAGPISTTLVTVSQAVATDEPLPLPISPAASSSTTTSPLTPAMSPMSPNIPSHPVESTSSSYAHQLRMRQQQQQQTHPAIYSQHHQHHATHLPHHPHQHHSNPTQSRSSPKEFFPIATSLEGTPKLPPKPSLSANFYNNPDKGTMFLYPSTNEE

T2: Sos-S2 peptide (Drosophila melanogaster, UniProt P26675)
T2 chain: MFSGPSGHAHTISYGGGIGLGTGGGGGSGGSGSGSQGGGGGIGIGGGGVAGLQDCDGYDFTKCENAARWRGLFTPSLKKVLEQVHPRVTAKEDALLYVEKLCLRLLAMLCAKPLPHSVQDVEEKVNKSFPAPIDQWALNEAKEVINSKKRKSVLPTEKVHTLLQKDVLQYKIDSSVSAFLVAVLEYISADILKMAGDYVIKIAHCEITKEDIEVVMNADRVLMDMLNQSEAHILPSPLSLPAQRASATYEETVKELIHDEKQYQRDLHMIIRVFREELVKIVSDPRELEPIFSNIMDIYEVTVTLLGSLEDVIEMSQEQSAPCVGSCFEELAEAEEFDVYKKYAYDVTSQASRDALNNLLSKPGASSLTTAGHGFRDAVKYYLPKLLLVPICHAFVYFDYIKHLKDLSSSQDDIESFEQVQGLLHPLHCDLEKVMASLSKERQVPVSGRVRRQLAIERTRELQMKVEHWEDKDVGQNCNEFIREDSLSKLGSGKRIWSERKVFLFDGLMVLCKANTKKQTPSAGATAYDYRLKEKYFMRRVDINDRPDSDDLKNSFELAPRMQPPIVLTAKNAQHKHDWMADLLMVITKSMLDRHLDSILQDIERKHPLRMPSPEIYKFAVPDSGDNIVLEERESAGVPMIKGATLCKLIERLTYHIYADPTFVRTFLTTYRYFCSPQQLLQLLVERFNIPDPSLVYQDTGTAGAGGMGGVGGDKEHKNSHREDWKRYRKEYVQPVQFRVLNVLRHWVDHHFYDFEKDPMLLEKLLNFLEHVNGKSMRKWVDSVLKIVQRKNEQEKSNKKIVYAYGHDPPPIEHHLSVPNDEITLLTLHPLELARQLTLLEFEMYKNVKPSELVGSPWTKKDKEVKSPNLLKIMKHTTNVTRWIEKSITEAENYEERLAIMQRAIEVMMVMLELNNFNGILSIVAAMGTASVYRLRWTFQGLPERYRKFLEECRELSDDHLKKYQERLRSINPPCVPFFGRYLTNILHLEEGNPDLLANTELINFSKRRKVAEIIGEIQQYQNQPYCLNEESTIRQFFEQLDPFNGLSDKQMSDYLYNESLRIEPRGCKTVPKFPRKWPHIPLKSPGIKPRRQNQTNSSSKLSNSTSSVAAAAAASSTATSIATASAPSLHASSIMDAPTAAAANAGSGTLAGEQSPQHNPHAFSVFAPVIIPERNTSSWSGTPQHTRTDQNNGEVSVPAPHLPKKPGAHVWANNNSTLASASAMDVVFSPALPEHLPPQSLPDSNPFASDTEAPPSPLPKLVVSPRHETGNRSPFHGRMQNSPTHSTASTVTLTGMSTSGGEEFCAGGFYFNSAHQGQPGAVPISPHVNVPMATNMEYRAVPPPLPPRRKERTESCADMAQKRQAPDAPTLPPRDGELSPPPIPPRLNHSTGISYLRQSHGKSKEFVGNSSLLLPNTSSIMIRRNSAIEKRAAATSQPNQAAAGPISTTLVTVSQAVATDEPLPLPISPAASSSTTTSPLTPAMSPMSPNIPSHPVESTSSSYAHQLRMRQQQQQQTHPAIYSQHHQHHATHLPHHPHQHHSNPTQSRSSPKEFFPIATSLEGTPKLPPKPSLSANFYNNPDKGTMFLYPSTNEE


Assays:
Sos-S1 peptide = target: T1, Sos-S1 peptide; test: NMR titration
Sos-S2 peptide = target: T2, Sos-S2 peptide; test: NMR titration

Row | Binder | Kd (Sos-S1 peptide) [µM] | Kd (Sos-S2 peptide) [µM]
1 | Drk NSH3 (protein) MEAIAKHDFSATADDELSFRKTQILKILNMEDDSNWYRAELDGKEGLIPSNYIEMKNH | ~13 | ~41
2 | Drk CSH3 (protein) PEEMLVQALYDFVPQESGELDFRRGDVITVTDRSDENWWNGEIGNRKGIFPATYVTPYHS | ~160 | –
